PMC3081313, “Factors Defining the Functional Oligomeric State of Escherichia coli DegP Protease” (PLoS ONE, 2011)

B1: proteolytically inactive DegP_(S210A) (enzyme, Escherichia coli, UniProt P0C0V0 27-474, looked up)
chain: AETSSATTAQQMPSLAPMLEKVMPSVVSINVEGSTTVNTPRMPRNFQQFFGDDSPFCQEGSPFQSSPFCQGGQGGNGGGQQQKFMALGSGVIIDADKGYVVTNNHVVDNATVIKVQLSDGRKFDAKMVGKDPRSDIALIQIQNPKNLTAIKMADSDALRVGDYTVAIGNPFGLGETVTSGIVSALGRSGLNAENYENFIQTDAAINRGNAGGALVNLNGELIGINTAILAPDGGNIGIGFAIPSNMVKNLTSQMVEYGQVKRGELGIMGTELNSELAKAMKVDAQRGAFVSQVLPNSSAAKAGIKAGDVITSLNGKPISSFAALRAQVGTMPVGSKLTLGLLRDGKQVNVNLELQQSSQNQVDSSSIFNGIEGAEMSNKGKDQGVVVNNVKTGTPAAQIGLKKGDVIIGANQQAVKNIAELRKVLDSKPSVLALNIQRGDSTIYLLMQ
notes: Escherichia coli DegP (HtrA, protease Do), periplasmic protease and chaperone, with the active-site change S210A; Number of copies depends on the sample: hexamer alone, 12-mer or 24-mer with substrate; also called HtrA_(S210A); DegP6

What was measured:
[1] = molecular target: the molecule itself; test: SEC; DegP_(S210A) mixed with MDH peptide fragments, 37°C 10 min; Superdex 200 in 50 mM HEPES pH 7.3, 150 mM NaCl at 4°C
[2] = molecular target: the molecule itself; test: SEC; DegP_(S210A) alone (42 µM monomer), incubated in 50 mM HEPES pH 7.3 at 37°C for 10 min; Superdex 200 10/300 GL in 50 mM HEPES pH 7.3, 150 mM NaCl at 4°C
[3] = molecular target: the molecule itself; test: SEC; DegP_(S210A) (42 µM) mixed with full-length β-casein (42 µM; also in molar excess), 37°C 10 min in 50 mM HEPES pH 7.3; Superdex 200 in 50 mM HEPES pH 7.3, 150 mM NaCl at 4°C; peak fractions on SDS-PAGE
[4] = molecular target: B1; test: SEC; DegP_(S210A) (94 µM) mixed with P^+Z^+ peptide (376 µM), 37°C 10 min; Superdex 200 in 50 mM HEPES pH 7.3, 150 mM NaCl at 4°C; details: both partners purified
[5] = molecular target: B1; test: SEC; DegP_(S210A) (94 µM) mixed with P^−Z^+ peptide (376 µM), 37°C 10 min; Superdex 200 in 50 mM HEPES pH 7.3, 150 mM NaCl at 4°C; details: both partners purified

B1
stoichiometry N [1]: 12 | stoichiometry N [2]: 6 | stoichiometry N [3]: 24

B2: PZ model peptide P^+Z^+ (peptide)
peptide: ALVLDMMYGGMRGYQV
notes: also called PepP^+Z^+; source: synthetic peptide (GenScript USA Inc.)
binding result [4]: binds

B3: PZ model peptide P^−Z^+ (peptide)
peptide: ALELDMMYGGMRGYQV
notes: as P^+Z^+ but the P motif altered from ALV to ALE; source: synthetic peptide (GenScript USA Inc.)
binding result [5]: binds
